# From patent publication US20180071366A1
# Numbered stars: 1 amine (or outer) side, 2 acyl side, 3 side chain; on linkers, the order of the positions; unused ones are H or OH. Bridge positions count the residues as written; N and C are the ends. Square brackets hold non-standard residues; d marks the D form. * marks the point of attachment. C20 diacid = O=C(O)CCCCCCCCCCCCCCCCCCC(=O)*; γGlu = O=C(O)[C@H](CCC(=O)[*:2])N[*:1]; Hyp = O=C(O)[C@@H]1C[C@@H](O)CN1; NMeI = CC[C@H](C)[C@H](NC)C(=O)O; Aad = N[C@@H](CCCC(=O)O)C(=O)O; Orn = NCCC[C@H](N)C(=O)O; Sar = CNCC(=O)O
# B1: Compound 33 (peptide)
# peptide: {C20 diacid-γGlu}-RDGTATKATERLA[Aad]FLQRANF[Sar]A[NMeI]LSSTEVGSNT[Hyp]-NH2
# modifications: lactam 2-7
# SMILES: CC[C@H](C)[C@@H](C(=O)N[C@@H](CC(C)C)C(=O)N[C@@H](CO)C(=O)N[C@@H](CO)C(=O)N[C@H](C(=O)N[C@@H](CCC(=O)O)C(=O)N[C@H](C(=O)NCC(=O)N[C@@H](CO)C(=O)N[C@@H](CC(N)=O)C(=O)N[C@H](C(=O)N1C[C@H](O)C[C@H]1C(N)=O)[C@@H](C)O)C(C)C)[C@@H](C)O)N(C)C(=O)[C@H](C)NC(=O)CN(C)C(=O)[C@H](Cc1ccccc1)NC(=O)[C@H](CC(N)=O)NC(=O)[C@H](C)NC(=O)[C@H](CCCNC(=N)N)NC(=O)[C@H](CCC(N)=O)NC(=O)[C@H](CC(C)C)NC(=O)[C@H](Cc1ccccc1)NC(=O)[C@H](CCCC(=O)O)NC(=O)[C@H](C)NC(=O)[C@H](CC(C)C)NC(=O)[C@H](CCCNC(=N)N)NC(=O)[C@H](CCC(=O)O)NC(=O)[C@@H](NC(=O)[C@H](C)NC(=O)[C@@H]1CCCCNC(=O)C[C@H](NC(=O)[C@H](CCCNC(=N)N)NC(=O)CC[C@H](NC(=O)CCCCCCCCCCCCCCCCCCC(=O)O)C(=O)O)C(=O)NCC(=O)N[C@@H]([C@@H](C)O)C(=O)N[C@@H](C)C(=O)N[C@@H]([C@@H](C)O)C(=O)N1)[C@@H](C)O
# B2: Compound 34 (peptide)
# peptide: {C20 diacid-γGlu}-RDGTATKATERLA[Aad]FLQRSSF[Sar]A[NMeI]PSSTEVGSNT[Hyp]-NH2
# modifications: lactam 2-7
# SMILES: CC[C@H](C)[C@@H](C(=O)N1CCC[C@H]1C(=O)N[C@@H](CO)C(=O)N[C@@H](CO)C(=O)N[C@H](C(=O)N[C@@H](CCC(=O)O)C(=O)N[C@H](C(=O)NCC(=O)N[C@@H](CO)C(=O)N[C@@H](CC(N)=O)C(=O)N[C@H](C(=O)N1C[C@H](O)C[C@H]1C(N)=O)[C@@H](C)O)C(C)C)[C@@H](C)O)N(C)C(=O)[C@H](C)NC(=O)CN(C)C(=O)[C@H](Cc1ccccc1)NC(=O)[C@H](CO)NC(=O)[C@H](CO)NC(=O)[C@H](CCCNC(=N)N)NC(=O)[C@H](CCC(N)=O)NC(=O)[C@H](CC(C)C)NC(=O)[C@H](Cc1ccccc1)NC(=O)[C@H](CCCC(=O)O)NC(=O)[C@H](C)NC(=O)[C@H](CC(C)C)NC(=O)[C@H](CCCNC(=N)N)NC(=O)[C@H](CCC(=O)O)NC(=O)[C@@H](NC(=O)[C@H](C)NC(=O)[C@@H]1CCCCNC(=O)C[C@H](NC(=O)[C@H](CCCNC(=N)N)NC(=O)CC[C@H](NC(=O)CCCCCCCCCCCCCCCCCCC(=O)O)C(=O)O)C(=O)NCC(=O)N[C@@H]([C@@H](C)O)C(=O)N[C@@H](C)C(=O)N[C@@H]([C@@H](C)O)C(=O)N1)[C@@H](C)O
# B3: Compound 36 (peptide)
# peptide: {C20 diacid-γGlu}-RDGTATKATERLA[Aad]FLQRSSF[Sar]A[NMeI]LSSTETGSNT[Hyp]-NH2
# modifications: lactam 2-7
# SMILES: CC[C@H](C)[C@@H](C(=O)N[C@@H](CC(C)C)C(=O)N[C@@H](CO)C(=O)N[C@@H](CO)C(=O)N[C@H](C(=O)N[C@@H](CCC(=O)O)C(=O)N[C@H](C(=O)NCC(=O)N[C@@H](CO)C(=O)N[C@@H](CC(N)=O)C(=O)N[C@H](C(=O)N1C[C@H](O)C[C@H]1C(N)=O)[C@@H](C)O)[C@@H](C)O)[C@@H](C)O)N(C)C(=O)[C@H](C)NC(=O)CN(C)C(=O)[C@H](Cc1ccccc1)NC(=O)[C@H](CO)NC(=O)[C@H](CO)NC(=O)[C@H](CCCNC(=N)N)NC(=O)[C@H](CCC(N)=O)NC(=O)[C@H](CC(C)C)NC(=O)[C@H](Cc1ccccc1)NC(=O)[C@H](CCCC(=O)O)NC(=O)[C@H](C)NC(=O)[C@H](CC(C)C)NC(=O)[C@H](CCCNC(=N)N)NC(=O)[C@H](CCC(=O)O)NC(=O)[C@@H](NC(=O)[C@H](C)NC(=O)[C@@H]1CCCCNC(=O)C[C@H](NC(=O)[C@H](CCCNC(=N)N)NC(=O)CC[C@H](NC(=O)CCCCCCCCCCCCCCCCCCC(=O)O)C(=O)O)C(=O)NCC(=O)N[C@@H]([C@@H](C)O)C(=O)N[C@@H](C)C(=O)N[C@@H]([C@@H](C)O)C(=O)N1)[C@@H](C)O
# B4: Compound 4 (peptide)
# peptide: {C20 diacid-γGlu-γGlu}-RDGTAT[Orn]ATERLAHFLQRSSF[Sar]A[NMeI]LSSTEVGSNT[Hyp]-NH2
# modifications: lactam 2-7
# SMILES: CC[C@H](C)[C@@H](C(=O)N[C@@H](CC(C)C)C(=O)N[C@@H](CO)C(=O)N[C@@H](CO)C(=O)N[C@H](C(=O)N[C@@H](CCC(=O)O)C(=O)N[C@H](C(=O)NCC(=O)N[C@@H](CO)C(=O)N[C@@H](CC(N)=O)C(=O)N[C@H](C(=O)N1C[C@H](O)C[C@H]1C(N)=O)[C@@H](C)O)C(C)C)[C@@H](C)O)N(C)C(=O)[C@H](C)NC(=O)CN(C)C(=O)[C@H](Cc1ccccc1)NC(=O)[C@H](CO)NC(=O)[C@H](CO)NC(=O)[C@H](CCCNC(=N)N)NC(=O)[C@H](CCC(N)=O)NC(=O)[C@H](CC(C)C)NC(=O)[C@H](Cc1ccccc1)NC(=O)[C@H](Cc1c[nH]cn1)NC(=O)[C@H](C)NC(=O)[C@H](CC(C)C)NC(=O)[C@H](CCCNC(=N)N)NC(=O)[C@H](CCC(=O)O)NC(=O)[C@@H](NC(=O)[C@H](C)NC(=O)[C@@H]1CCCNC(=O)C[C@H](NC(=O)[C@H](CCCNC(=N)N)NC(=O)CC[C@H](NC(=O)CC[C@H](NC(=O)CCCCCCCCCCCCCCCCCCC(=O)O)C(=O)O)C(=O)O)C(=O)NCC(=O)N[C@@H]([C@@H](C)O)C(=O)N[C@@H](C)C(=O)N[C@@H]([C@@H](C)O)C(=O)N1)[C@@H](C)O
# B5: Compound 32 (peptide)
# peptide: {C20 diacid-γGlu}-RDGTATKATERLA[Aad]FLQRGGF[Sar]A[NMeI]LSSTEVGSNT[Hyp]-NH2
# modifications: lactam 2-7
# SMILES: CC[C@H](C)[C@@H](C(=O)N[C@@H](CC(C)C)C(=O)N[C@@H](CO)C(=O)N[C@@H](CO)C(=O)N[C@H](C(=O)N[C@@H](CCC(=O)O)C(=O)N[C@H](C(=O)NCC(=O)N[C@@H](CO)C(=O)N[C@@H](CC(N)=O)C(=O)N[C@H](C(=O)N1C[C@H](O)C[C@H]1C(N)=O)[C@@H](C)O)C(C)C)[C@@H](C)O)N(C)C(=O)[C@H](C)NC(=O)CN(C)C(=O)[C@H](Cc1ccccc1)NC(=O)CNC(=O)CNC(=O)[C@H](CCCNC(=N)N)NC(=O)[C@H](CCC(N)=O)NC(=O)[C@H](CC(C)C)NC(=O)[C@H](Cc1ccccc1)NC(=O)[C@H](CCCC(=O)O)NC(=O)[C@H](C)NC(=O)[C@H](CC(C)C)NC(=O)[C@H](CCCNC(=N)N)NC(=O)[C@H](CCC(=O)O)NC(=O)[C@@H](NC(=O)[C@H](C)NC(=O)[C@@H]1CCCCNC(=O)C[C@H](NC(=O)[C@H](CCCNC(=N)N)NC(=O)CC[C@H](NC(=O)CCCCCCCCCCCCCCCCCCC(=O)O)C(=O)O)C(=O)NCC(=O)N[C@@H]([C@@H](C)O)C(=O)N[C@@H](C)C(=O)N[C@@H]([C@@H](C)O)C(=O)N1)[C@@H](C)O
# Target: recombinant human amylin 3 receptor (hAMYR3) (human), P30988
# Sequence (P30988 25-474, chain 1 of 2): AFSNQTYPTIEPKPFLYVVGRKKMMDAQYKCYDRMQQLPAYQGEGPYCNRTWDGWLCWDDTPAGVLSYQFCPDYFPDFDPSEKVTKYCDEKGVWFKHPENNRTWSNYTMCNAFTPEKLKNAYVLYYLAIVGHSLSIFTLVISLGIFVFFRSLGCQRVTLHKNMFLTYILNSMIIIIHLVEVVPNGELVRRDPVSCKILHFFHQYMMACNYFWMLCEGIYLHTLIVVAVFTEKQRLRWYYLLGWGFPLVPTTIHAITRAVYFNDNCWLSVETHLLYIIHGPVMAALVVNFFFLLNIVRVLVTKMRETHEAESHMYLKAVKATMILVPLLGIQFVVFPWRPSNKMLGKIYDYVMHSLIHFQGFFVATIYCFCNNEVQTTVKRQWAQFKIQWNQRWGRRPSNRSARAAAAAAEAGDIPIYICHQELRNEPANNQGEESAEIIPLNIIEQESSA
# Sequence (O60896 24-148, chain 2 of 2, further chain): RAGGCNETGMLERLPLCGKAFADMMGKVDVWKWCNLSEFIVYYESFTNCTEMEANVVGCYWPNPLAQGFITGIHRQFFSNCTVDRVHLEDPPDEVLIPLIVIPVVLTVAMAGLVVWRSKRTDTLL
# Assay: cell-based or functional assay
row,"hAMYR3 EC50 [nM] (cAMP formation, 1321N1 cells expressing hAMYR3)",Binder
1,0.009,B1
2,0.063,B2
3,0.007,B3
4,0.092,B4
5,0.028,{C20 diacid-γGlu}-RDGTATKATERLA[Aad]FLQRSSF[Sar]A[NMeI]LSSTEVGSNT[Hyp]-NH2 (lactam 2-7) [Compound 35]
6,0.005,B5

# Target: recombinant human calcitonin receptor (hCT-R) (human), P30988
# Sequence (P30988 25-474): as the sequence (P30988 25-474, chain 1 of 2) above
# Assay: cell-based or functional assay
row,"hCT-R EC50 [nM] (cAMP formation, 1321N1 cells expressing hCT-R)",Binder
1,0.019,B1
2,0.206,B2
3,0.026,B3
4,0.16,B4
5,0.066,{C20 diacid-γGlu}-RDGTATKATERLA[Aad]FLQRSSF[Sar]A[NMeI]LSSTEVGSNT[Hyp]-NH2 (lactam 2-7) [Compound 35]
6,0.006,B5
